The numbers were not newly measured in PMC4329993, which cites them from elsewhere.

As a reminder, the Kd is the free concentration of one partner at which half of the binding sites on the other are occupied at equilibrium, for simple one-to-one binding.

The data set addresses GLP-1 receptor (Homo sapiens) (UniProt P43220).
Sequence of UniProt P43220 (P43220 24-463): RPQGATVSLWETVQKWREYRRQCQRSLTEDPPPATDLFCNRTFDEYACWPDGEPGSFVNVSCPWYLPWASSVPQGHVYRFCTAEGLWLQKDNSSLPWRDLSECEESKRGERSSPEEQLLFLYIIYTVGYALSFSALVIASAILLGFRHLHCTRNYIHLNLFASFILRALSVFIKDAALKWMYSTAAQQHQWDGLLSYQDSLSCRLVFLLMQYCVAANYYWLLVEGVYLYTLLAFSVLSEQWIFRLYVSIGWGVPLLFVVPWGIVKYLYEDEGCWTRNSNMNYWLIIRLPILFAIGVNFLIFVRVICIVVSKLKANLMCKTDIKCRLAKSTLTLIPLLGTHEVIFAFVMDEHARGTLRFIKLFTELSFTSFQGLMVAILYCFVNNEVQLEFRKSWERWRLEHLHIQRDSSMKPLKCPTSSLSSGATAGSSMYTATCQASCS

Sequence of GLP-1 (P01275 98-127): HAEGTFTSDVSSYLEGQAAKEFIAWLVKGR

Turning to GLP-1 (from UniProt P01275), the Kd was 0.3 nM.
